Earlier results on two substances are cited in paper PMC5643527, “In vivo imaging of lung inflammation with neutrophil-specific ^68Ga nano-radiotracer” (Scientific Reports, 2017).

The target in series [1] is formyl peptide receptor 1 (Homo sapiens) (UniProt P21462).
Series [2] deals with formyl peptide receptor 1 (FPR-1). The conditions noted are these: antagonist of FPR-1; read-out: binding affinity (Kd). Here is the method: A particularly interesting compound is the peptide N-cinnamoyl-F-(D)L-F-(D)L-F (cFLFLF), an antagonist of formyl peptide receptor 1 (FPR-1). The very high binding affinity of cFLFLF (Kd = 2 nM) is the main reason for its use in neutrophil-specific probes for PET and optical fluorescence[7],[8],[10]. However, the high hydrophobicity of cFLFLF produces very poor target-to-background ratios. This serious limitation is the reason why to date the amount of radiotracer reaching the inflammation site is below 1% (expressed as the % of injected dose per mass of the organ)[7],[10]. || Inflammation is a central feature of many clinical conditions and can be broadly classified as acute or chronic. Acute inflammation typically occurs over a timescale of minutes to hours, whereas chronic inflammation can develop over several days to months. The predominant cell type in acute inflammation is the neutrophil, whereas chronic inflammation features a greater variety of cell types.

UniProt P21462, sequence (P21462 whole entry): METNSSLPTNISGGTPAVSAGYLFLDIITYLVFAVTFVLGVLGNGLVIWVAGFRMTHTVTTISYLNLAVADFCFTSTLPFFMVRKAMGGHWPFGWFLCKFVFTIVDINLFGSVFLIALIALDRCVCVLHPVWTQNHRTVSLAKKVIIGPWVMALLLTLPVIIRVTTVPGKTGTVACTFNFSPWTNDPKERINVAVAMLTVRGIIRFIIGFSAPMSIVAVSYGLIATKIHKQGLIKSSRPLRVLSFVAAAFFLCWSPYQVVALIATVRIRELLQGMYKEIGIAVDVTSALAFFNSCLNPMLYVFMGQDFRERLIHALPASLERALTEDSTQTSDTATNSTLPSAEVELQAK

The Kd is the concentration at which binding is half-saturated. For cFLFLF (N-cinnamoyl-F-(D)L-F-(D)L-F), the Kd in series [1] was 2 nM. As to N-cinnamoyl-F-(D)L-F-(D)L-F [cFLFLF], the Kd in series [2] is 2 nM.
